Reference: paper PMC7367177

Target: ItaT(G115D) mutant protein (E. coli HS)
Assay: crystal structure

ItaT(G115D) mutant protein (enzyme)
stoichiometry N: 2
